Data on 19 sequences can be found in the DeepSol protein solubility set.

This data set in a line: soluble on expression in E. coli; label from the status in PepcDB or PDB records.
“MNSRQMYEKIKERLVAHPHWTFRFDAKQDAMRVEDRRTKKGVTISLPGVIAKWHEQKDEAVREVVYYVEQTLKTMEEDAALSGNERNIYPVIRSASFPTETKEGVPLLFDDHTAETRIYYALDLGKTYRLIDERMLEKDKWSRERVKEIARFNVRSLPTPVKEARVADNVFYFVNPNDGYDASRILNESFLADMRARVEGTMAVAVPHQDVLVIADVRNDIGYDVLAQMTMSFFAGGRVPITALSFLYENGKLEPIFILGKKRRT”: the “soluble on expression in E. coli” value is recorded as “not soluble”.

Take “MNSSPAGTPSPQPSRANGNINLGPSANPNAQPTDFDFLKVIGKGNYGKVLLAKRKSDGAFYAVKVLQKKSILKKKEQSHIMAERSVLLKNVRHPFLVGLRYSFQTPEKLYFVLDYVNGGELFFHLQRERRFLEPRARFYAAEVASAIGYLHSLNIIYRDLKPENILLDCQGHVVLTDFGLCKEGVEPEDTTSTFCGTPEYLAPEVLRKEPYDRAVDWWCLGAVLYEMLHGLPPFYSQDVSQMYENILHQPLQIPGGRTVAACDLLQSLLHKDQRQRLGSKADFLEIKNHVFFSPINWDDLYHKRLTPPFNPNVTGPADLKHFDPEFTQEAVSKSIGCTPDTVASSSGASSAFLGFSYAPEDDDILDC”: the “soluble on expression in E. coli” value was “soluble”.

For the sequence “MNTDILIGAIAGDIIGSYYEFVPIKSIDFPLFNGSSSHFTDDTIMTIANADWLLTGDSLLGIMQDYGNRYHSSYGSMFYEWLRADNPQPYNSWGNGSAMRVSPIDWAFNTLEETLEAAKQSAEVTHNHPEGIKGAQATAACIYLARTGKSKQEIKEYVETTFGYNLNRTCDDIRPTYHFNESCQGTIPESIIAFLESTDYESAIRLTISLGGDADTMGAITGGIAEAYYKEIPQYIIDEVLKRLSEEFIDIMQRFYRMFISS”, the “soluble on expression in E. coli” value is “not soluble”.

As to “MNTFQMRDKLKERLSHLDVDFKFNREEETLRIYRTDNNKGITIKLNAIVAKYEDKKEKIVDEIVYYVDEAIAQMADKTLESISSSQIMPVIRATSFDKKTKQGVPFIYDEHTAETAVYYAVDLGKSYRLIDESMLEDLKLTEQQIREMSLFNVRKLSNSYTTDEVKGNIFYFINSNDGYDASRILNTAFLNEIEAQCQGEMLVAVPHQDVLIIADIRNKTGYDVMAHLTMEFFTKGLVPITSLSFGYKQGHLEPIFILGKNNKQK”, the “soluble on expression in E. coli” value was “not soluble”.

With “MNTKLTKIISGLFVATAAFQTASAGNITDIKVSSLPNKQKIVKVSFDKEIVNPTGFVTSSPARIALDFEQTGISMDQQVLEYADPLLSKISAAQNSSRARLVLNLNKPGQYNTEVRGNKVWIFINESDDTVSAPARPAVKAAPAAPAKQQAAAPFTESVVSVSAPFSPAKQQAAASAKQTNIDFRKDGKNAGIIELAALGFAGQPDISQQHDHIIVTLKNHTLPTALQRSLDVADFKTPVQKVTLKRLNNDTQLIITTTGNWELVNKSAAPGYFTFQVLPKKQNLESGGVNNAPKTFTGRKISLDFQDVEIRTILQILAKESGMNIVASDSVSGKMTLSLKDVPWDQALDLVMQARNLDMRQQGNIVNIAPRDELLAKDKAFLQAEKDIADLGALYSQNFQLKYKNVEEFRSILRLDNADTTGNRNTLVSGRGSVLIDPATNTLIVTDTRSVIEKFRKLIDELDVPAQQVMIEARIVEAADGFSRDLGVKFGATGRKKLKNETSAFGWGVNSGFGGGDKWEAQTKINLPVAAAANSISLVRAISSGALNLELSASESLSKTKTLANPRVLTQNRKEAKIESGYEIPFTVTTASGGGNSTNTELKKAVLGLTVTPNITPDGQIIMTVKINKDSPAQCASGNNTILCISTKSLNTQAMVENGGTLIVGGIYEENNGNTLTKVPLLGDIPVIGNLFKTRGKKTDRRELLIFITPRIIDTAGNSLRY”, the “soluble on expression in E. coli” value was “not soluble”.

As for “MNTLISRQLGLLLHAHECVRRDIKIREAAEKNEPAPHAMCKIQDCVIMKEVLKHMTSCKEGPKCNSVHCASSRTILSHWKKCFNEECPVCKPIIEQRTAPPQDTTPAEPKKPEHDQIWHLEVPKTYRSELIEKIYKGIMSNVKPGTLSEAQMDTWKEYSRSAELQIFDTAQKLEAYYHMAREKVCRYQEGFPRRQKTEEKDESDGSEKEDEADDRLEGTSTDYQGS”, the “soluble on expression in E. coli” value is “not soluble”.

In the case of “MNTLMTQIHELQHVAHELLYLGADGSPIYTDSFRQLNTEVLQKSDALFALKGENPEEEARLCLALLMGYNATIYDYGDKESKKQVILDRSLLVLESLPSSLLKCQLLTYCYGEVFEEELAKEAHAIIDYWDNKTLSIDEQETVDMLKMIEENQYPNNYID”, the “soluble on expression in E. coli” value is given as “not soluble”.

Consider “MNTNSYSMAQDNEEITKLEAPSTNKTNTLLSQSHAVVNHGDNGQINGKKTKEIHRVKRASDKKVSSKRVSRTWKIPKYPKKQPKSDQEHPGFNLDYMQPTTHPPHHN”, for which the “soluble on expression in E. coli” value was “soluble”.

Turning to “MNTPAQRHFTLEPANAERLADLSGCFNEHLRQIELRLGVEIANRGHTFHITGPEPAVTSTETLLRALYAEATGTTFNNHTIQLRLSEAHMAQIVEQTDTPQDIGIRVKRGTVRGHGANQTKYLHKIATHDINFGIGPAGTGKTFLAVASAVEALNESRVQRLILVRPAVEAGEKLGFLPGDLNQKIDPYLRPLYDALYEMLGVEKVLKLLEKNIIEIAPLAYMRGRTLNNAFVILDEAQNTTIEQMKMFLTRLGFGSTAVVTGDLTQIDIPKHLKSGLDDAIEVLHDIEGISFTFFKSHDVVRHPLVARIVSAYDKHNTHPSTTKPA”, the “soluble on expression in E. coli” value was “not soluble”.

As for “MNTPLQRPLADSTGLIENDAHALAVATALAQEFSIDAALRDRERQIPYSELDAVSRSGILGISIPLAFGGAEVNNVILAKVIAQIAQADGSLGQILQNHFHTLEALRVYGSRAQQQRIFAEVLAGALFGVAVDEQGTTNSQICTAVLAPSGEGYRISGRKFCATCAPYTRQILASAVDAQGARYMVFISLDALGLSIVDDGSCFGQRTVGGGSVMFDNVYVTSSDVVPFQVSLNDPNCVERHAQFMHAAVGTGIARAAYEDTLRFVREHARPWPEAAVDKARDDPLTIIEIGRLIIRLHAAEALLERAGAAVDLNRKAVCAENVALASMVVAAAQTLSTEVSLAAGSKLIELGGARATLSDYGLDRHWRNARVHTLYDPARWGPHQQGQQKLAPF”, the “soluble on expression in E. coli” value is recorded as “not soluble”.

Consider “MNTTPFPALSAETLLAVNTVGQWLAQNDFSGEQPYSSDCVVLAGNAVIPTIDAACRIAKAQGVPLLISGGIGHSTPFLYAVIARHPRYHTIRTSGRAEAAILADIANQFWHIPAEKIWLEDRSTNCGENARFSCALIRQAKENINTAIVVQDPTMQRRTIAAFRRVTNDDTDAPRWLSFPGFVPVLRHLNDGTRFANVEEGIWTVERYLSLIAGELPRLRDDETGYGPRGKDFIIHVDIPRDIENAWQVLQADTTLRSALGQRALRLEHHHHHH”, for which the “soluble on expression in E. coli” value is “soluble”.

Take “MNVLVIEDDKVFRGLLEEYLSMKGIKVESAERGKEAYKLLSEKHFNVVLLDLLLPDVNGLEILKWIKERSPETEVIVITGHGTIKTAVEAMKMGAYDFLTKPCMLEEIELTINKAIEHRKLRKENELLRREKDLKEEEYVFESPKMKEILEKIKKISCAECPVLITGESGVGKEVVARLIHKLSDRSKEPFVALNVASIPRDIFEAELFGYEKGAFTGAVSSKEGFFELADGGTLFLDEIGELSLEAQAKLLRVIESGKFYRLGGRKEIEVNVRILAATNRNIKELVKEGKFREDLYYRLGVIEIEIPPLRERKEDIIPLANHFLKKFSRKYAKEVEGFTKSAQELLLSYPWYGNVRELKNVIERAVLFSEGKFIDRGELSCLVNSK”: the “soluble on expression in E. coli” value is on record as “soluble”.

“MNVVKFGGSSLASAPQLQKVLQIVKEEPRRTFVVVSAPGKRTPQDIKVTDLLIQYYQRYLNNEEIESTISAIIRRYEDLFDELHLDKAVLADIAISIRQLATLPKENNAFLFDYFLASGEDNNAKVVASFFKQNGLDARYISPKELGLLVTPEPGNARILPKALEKISVYRETQQILVIPGFFGYTEAGEICTFSRGGSDITGSIVAAGVQADLYENFTDVDGIYVAHPGIIEQPQTIQELTYREMRELAYAGFAVLHDEALMPAYRANIPVVIKNTNNPHHPGTLITTSRKVKHAPVVGIASDQGFASIYISKYLMNRELGFGRRLLEVLEKLALSYEHMPSGIDDITIVLREDQLTTEIENRLMAQLQEVLAPDELRITHHLSMIMIVGEGMRQRIGVTAESTMALAKEKINLEMINQGSSEVSIMFGIKKEQEEKAIKALYRTFFHD”: the “soluble on expression in E. coli” value is given as “not soluble”.

As to “MNVWLLGRGELRRRHDDVLQLERAFLTDRTGLHFVNARSSEDLLALAESRRAEQQWPVLDAEWISPVGTDTCDDLVWQNLESTLDGRPDTFYSTAGFEAGNTLSGTGELAPGEAFLAYRFWRPVRVYAVQLRAFQADFHPGRPVYPFQVARVGVGCSLQAGMSLSYGADASAPGTSCNYRCFCTTEQQTLVFDDPMVGVYLVICLKGFPQQQLTDRLHYAAVSGIRVFGEPISSPALENELSCLISRGFILDGRDAARWLDLRSAQEHAAPMHIPEDEVI”, the “soluble on expression in E. coli” value is recorded as “not soluble”.

Take “MNYFVGNSLGVNLTGIEKAIINRLNLFKEMGRPAQCVFLSWNRYLYRNAQNYITSSDYINMYDFFQEATYLERNEPFDWLSYWTDECHYTLKHVENSHDFRIYDQERFLMYAHFQDPKYRILDYVNHFDSQRRKVKRDFYDVRGFLSCSRILVDKQQTLCEFFYNPEGDTKLEKYFSYKDGKPEVQKIIVYYANKQYFFNNETELGAFFIKQLYQHGDLFFSDRNVYTAPIFNLTPESIPVVAVLHSTHIKNIDALDSSPFKNVYKAMFENLSRYRAIIVSTEQQKLDVEKRINHTIPVVNIPVGYSETIDTPVQTLDQRSVKLISVARYSPEKQLHQQIELIKRLVSYVPKIELHMYGFGSESKKLNELIQKYGLENHVYLRGFLSNLDQEYSDAYLSLITSNMEGFSLALLESLAHGVPVISYDIKYGPNELITSDFNGYLITKNDEDALFDKVKYVIDHPEVQQRLSKGSLAKAQQYSKASLIKQWDQFVRLI”: the “soluble on expression in E. coli” value is recorded as “not soluble”.

As for “MNYRHIYHAGNFADVFKHIIVTRIIEYLKRKEKAFRVIDTHAGIGIYDLSSLEAHKTGEWREGVYQLLSTPIPEDLKALLYPWCNIIETLNKGKKDILFYPGSPVLIRQLLRKQDRLTAIELHREDYHILAKNFAGDYQTKVLHLNGWLSLNAHLPPKEKRGFILVDPPFEKPGEFSRLIEGLMKAYRRFSGGIYALWYPVKYDKEIENFLHALHQTGIPKILQLEMRIRKSSIPPTMNGSGMILINPPYLLEEEIKKLSPFLIARLGQDKNAQITHKWIQKEQLLC”, the “soluble on expression in E. coli” value is listed as “not soluble”.

“MNYRNKAFLKYEEDYFIERIIKALKDYEEIIIISNNPEEYKEFGLKVFKDIYPSQGPLSGIHSALNHIKNDYCLVVACDMPFINKDVVNYLGNIKEDYEILIPKFQERLQPLCAIYKKSCKDIMEKELINNSNKLIKTCFKFSMKVVEEFPFIEKVHKKEIKNFYNINTVDEYEDLIKKKEILEHHHHHH”: the “soluble on expression in E. coli” value is listed as “not soluble”.

Regarding “MPAKDVQICPIAVDTTVFRSRTWDRLKFEIEYGLQRGTTANSYLISADKIALFDPPGESFTDNFVGTLIQRLDLNSLDYVILGHVNANRAHTLKLLLSLAPQATIICSNPAAQNLEKLLADAEVNNPIQVMKGNDHLDLGRGHELTFIPTPSPRYPGQLCTYDPRTEILFTDKLFGAHVCGDQVFDEGWTIYQEDRRYYFDCLLAPAAAQVSAALNKLEAYPAQTYAPSHGPLVRYGLRELTRNYQQWLSEQQAQALEHHHHHH”, the “soluble on expression in E. coli” value is on record as “not soluble”.

“MPAPLYGADDPLRCSGNSVSEVLDKFRKKYDLIMSLPQETKEEKEFRHCIWLAEKEEREQIYQTSIRPFRKATYTHFPEIDPRLRNYRSRYGAISND”: the “soluble on expression in E. coli” value is “not soluble”.
